In experiment [1] the target is acetyl-6-formylpterin-loaded MR1 C262S/hβ2m, P61769. Briefly: SPR. Conditions: chain shown with the change;; parent: est. 2.0; read off a plot.
For experiment [2], the target named is peptide-loaded HLA-A*02:01/hβ2m (photolabile peptide KILGFVFJV). Briefly: SPR. Conditions: chain shown with the change;; parent: est. 0.98; read off a plot.

Residue numbers refer to the chain shown, from its start. Names and notes keep the numbering of the source.

B1: human TAPBPR (TAP binding protein, related), luminal domain R105K; K211R; R270Q (protein)
chain: KPHPAEGQWRAVDVVLDCFLAKDGAHRGALASSEDRARASLVLKQVPVLDDGSLEDFTDFQGGTLAQDDPPIIFEASVDLVQIPQAEALLHADSSGKEVTCEISKYFLQMTETTVKTAAWFMANMQVSGGGPSISLVMKTPRVTKNEALWHPTLNLPLSPQGTVRTAVEFQVMTQTQSLSFLLGSSASLDCGFSMAPGLDLISVEWRLQHRGRGQLVYSWTAGQGQAVRKGATLEPAQLGMARDASLTLPGLTIQDEGTYICQITTSLYQAQQIIQLNIQASPKVRLSLANEALLPTLICDIAGYYPLDVVVTWTREELGGSPAQVSGASFSSLRQSVAGTYSISSSLTAEPGSAGATYTCQVTHISLEEPLGASTQVVPPERR
As to B1, the Kd (Log10 KD (µM)) in experiment [1] was determined as 1.8.

B2: human TAPBPR (TAP binding protein, related), luminal domain S104F; K211L; R270Q (protein)
chain: B1 chain with S104F, K105R, R211L
Turning to B2, the Kd (Log10 KD (µM)) in experiment [2] came out at 0.09.

B3: human TAPBPR (TAP binding protein, related), luminal domain K211R; R270Q (protein)
chain: B1 chain with K105R
In the case of B3, the Kd (Log10 KD (µM)) in experiment [2] came to 0.1.

(Values after publication PMC9956121.)
